What is called Kd is the equilibrium constant for the complex coming apart. A word on the koff: it is a measure of how fast the partners let go of each other. For orientation: kon means the rate constant with which the complex forms.

This is an account of results in EP4755449A2 (CHUGAI SEIYAKU KABUSHIKI KAISHA, dated 2026).

Read-outs that look alike come from different tables or passages of the source.

Test [1] deals with T1, Human GDF11 with Flag-tag on N-terminus (human, UniProt O95390 11-407).
T1 construct: processing of the expressed protein not described; also called Flag-hGDF11; human latent GDF11
T1 sequence: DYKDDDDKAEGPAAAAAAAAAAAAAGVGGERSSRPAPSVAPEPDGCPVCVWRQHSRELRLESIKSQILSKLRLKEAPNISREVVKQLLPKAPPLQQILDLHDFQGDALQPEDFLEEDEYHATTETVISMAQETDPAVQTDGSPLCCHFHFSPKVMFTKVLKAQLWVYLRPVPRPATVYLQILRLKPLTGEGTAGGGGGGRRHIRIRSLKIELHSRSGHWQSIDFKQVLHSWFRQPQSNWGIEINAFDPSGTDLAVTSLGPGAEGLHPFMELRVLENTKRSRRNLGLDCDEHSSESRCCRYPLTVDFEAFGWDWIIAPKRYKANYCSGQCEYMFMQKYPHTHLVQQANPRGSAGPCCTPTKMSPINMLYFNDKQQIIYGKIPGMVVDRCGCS
Nature of the test: ELISA, biotinylated antigen on streptavidin plate.

The next test concerns the target T2, mature myostatin (human (mature form 100% identical in …, UniProt O08689 268-376 (mouse entry))).
T2 construct: biotinylated in the ELISA; also called myostatin mature form; active myostatin
T2 sequence: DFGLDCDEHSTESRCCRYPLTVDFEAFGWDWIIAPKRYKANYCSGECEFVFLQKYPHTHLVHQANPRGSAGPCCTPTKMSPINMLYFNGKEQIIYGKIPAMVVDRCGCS
Put plainly: ELISA, biotinylated antigen on streptavidin plate.

In test [2] the target is T3, human latent myostatin (human, UniProt O14793 25-266; O14793 267-375).
T3 construct: non-covalent complex of two propeptides and the mature homodimer; also called human myostatin latent form
T3 sequence 1: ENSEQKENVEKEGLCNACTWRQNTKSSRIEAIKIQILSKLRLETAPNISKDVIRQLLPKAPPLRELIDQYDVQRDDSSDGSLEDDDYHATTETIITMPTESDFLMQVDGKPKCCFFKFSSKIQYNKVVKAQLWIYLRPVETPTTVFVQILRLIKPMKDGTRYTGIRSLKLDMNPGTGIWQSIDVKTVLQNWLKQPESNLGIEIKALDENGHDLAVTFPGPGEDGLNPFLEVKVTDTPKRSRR
T3 sequence 2: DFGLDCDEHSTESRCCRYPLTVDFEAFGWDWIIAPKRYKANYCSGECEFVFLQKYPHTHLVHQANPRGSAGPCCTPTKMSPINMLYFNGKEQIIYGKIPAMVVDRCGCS
Nature of the test: SPR 37C pH7.4.

For test [3], the target named is T4, cynomolgus monkey latent myostatin (cynomolgus monkey, UniProt Q95J86 25-266; Q95J86 267-375, limits assumed).
T4 construct: also called cyno latent myostatin
T4 sequence 1: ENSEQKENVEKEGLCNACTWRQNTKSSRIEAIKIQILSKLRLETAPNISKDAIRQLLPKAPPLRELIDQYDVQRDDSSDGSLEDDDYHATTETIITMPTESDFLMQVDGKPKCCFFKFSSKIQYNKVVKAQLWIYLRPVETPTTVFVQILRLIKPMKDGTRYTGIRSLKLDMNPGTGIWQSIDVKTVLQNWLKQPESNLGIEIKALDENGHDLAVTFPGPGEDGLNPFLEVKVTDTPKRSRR
T4 sequence 2: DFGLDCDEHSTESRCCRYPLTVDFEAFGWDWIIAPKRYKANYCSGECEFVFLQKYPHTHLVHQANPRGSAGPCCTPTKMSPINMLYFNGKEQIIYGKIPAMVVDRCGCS
Put plainly: SPR 37C pH7.4.

In the next test the target is T5, mouse latent myostatin (mouse, UniProt O08689 26-267; O08689 268-376).
T5 sequence 1: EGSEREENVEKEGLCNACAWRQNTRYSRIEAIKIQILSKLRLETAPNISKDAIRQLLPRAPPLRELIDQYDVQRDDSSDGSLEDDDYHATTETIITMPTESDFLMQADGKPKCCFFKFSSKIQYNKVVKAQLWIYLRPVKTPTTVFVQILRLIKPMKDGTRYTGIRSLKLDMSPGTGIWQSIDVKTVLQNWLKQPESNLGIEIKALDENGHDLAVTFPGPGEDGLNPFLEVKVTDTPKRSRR
T5 sequence 2: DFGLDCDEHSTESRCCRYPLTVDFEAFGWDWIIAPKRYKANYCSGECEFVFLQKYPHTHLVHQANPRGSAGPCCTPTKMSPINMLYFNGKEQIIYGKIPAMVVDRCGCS
Nature of the test: SPR 37C pH7.4.

For test [4], the target named is T3, human latent myostatin. Put plainly: SPR 37C pH7.4. This is another data set of the same source.

B1: MS_MST1032Ha-G1m/MST1032La-k0MC (antibody, human IgG1, kappa, V domains shown)
VH: QSLEESGGRLVTPGGSLTVTCRVSGIDLSSYDISWVRQAPGKGLEWIGIISYAGSTYYASWAKGRFTISKTSTTVDLKMTSLTTEDTATYFCARGVPAYSTGGDLWGPGTLVTVSS
VL: AQVLTQTASSVSAAVGGTVTINCQSSQSVYDNNWLSWFQQKPGQPPKLLIYWASTLASGVPSRFKGSGSGTQFTLTISDLECDDAATYYCAGGYGGGLYAFGGGTKVEIKR
notes: rabbit/human chimeric; also called MST1032-G1m
Turning to B1, the binding result (in test [1]; with mature myostatin) was “no binding” each time. Further, the Kd in the test with human latent myostatin [2] stood at 0.0766 nM; in test [3], 0.0717 nM; with mouse latent myostatin it was 0.0579 nM; with human latent myostatin [4] it was 0.0766 nM. Moreover, the koff with human latent myostatin [2] is 8.65e-05 s⁻¹; in test [3], 7.79e-05 s⁻¹; with mouse latent myostatin, 8.16e-05 s⁻¹; with human latent myostatin [4], 8.65e-05 s⁻¹. Besides, the kon came to 1.13e+06 M⁻¹ s⁻¹ with human latent myostatin [2], 1.09e+06 M⁻¹ s⁻¹ in test [3], 1.41e+06 M⁻¹ s⁻¹ in the test with mouse latent myostatin and 1.13e+06 M⁻¹ s⁻¹ with human latent myostatin [4].
